Experimental findings from US20250152627A1, “COMPOSITIONS AND METHODS FOR ENHANCING IMMUNE CELL FUNCTION USING MODIFIED CELLS WITH GLYCOCALYX EDITING ENZYMES” (Cornell University, priority 2021, published 2025) are described below.

One data set concerns NK-92 cells. The data set is described as follows: Flow cytometry of mucin levels on NK-92 cells after StcE incubation. Type of data set: cell-based. The following applies: 100 nM recombinant enzyme. The procedure:
FIG. 11. StcE mucinase effectively remove cell-surface mucin on 1E7 clone and NK cell. (A) Representative confocal images of Muc1-GFP expressing 1E7 cells with and without treatment with 100 nM StcE, StcE ΔX409, or StcE-EE Zip; Alexa Fluor 647 conjugated to GFP nanobody is used to probe cell-surface Muc1-GFP constructs. (Scale bar, 10 μm). (B) Quantification of mean fluorescence intensity of Muc1-GFP and cell-surface Muc1-GFP probed with GFP nanobody in 1E7 cells treated with the indicated concentration of StcE mucinase; results are shown for induction of Muc1-GFP at 100 ng/ml and 1000 ng/ml doxycycline. (C) Cytotoxicity of NK-92 cells against 1E7 cells treated with control buffer, 100 nM StcE mucinase, or 5,000 U/mL PNGase F for 1 hour; Muc1-GFP induction is at the indicated doxycycline concentration (1,100, and 1,000 ng/ml); NK cell to target cell ratio is 5:1. (D) Flow cytometry analysis of mucin levels on NK-92 cells following incubation with control buffer or 100 nM recombinant StcE or StcE ΔX409; StcE surface level after incubation probed with anti His-tag antibody and cell-surface mucin level probed with catalytically dead StcE E447D conjugated to Cy5. Statistical significance is given by ns—not significant, *P≤0.05, **P≤0.01, ***P≤0.001, ****P≤0.0001. Results are a representative dataset from 3 independent replicates. […]
(In general: Flow cytometry measures light scatter and fluorescence of single cells or particles in a stream.)

Another data set has as its system 1E7 cells. The data set is described as follows: NK cell cytotoxicity assay against 1E7 cells. The following applies: 1E7 target cells; NK cell to target cell ratio 5:1 or 10:1. The format is cell-based. The procedure:
Target MCF10A cells were fluorescently labeled by incubation with 1 M CellTracker Green CMFDA Dye (Invitrogen) in MCF10A growth media for 10 minutes. 3×10^4 labeled target cells were suspended with varying ratios of NK-92 effector cells in 200 μL of growth media of target cell line in absent of IL-2 and cocultured in an ultra-low attachment U-bottom 96-well plate (Corning) for 4 hours at 37° C. in 5% C02. For all StcE-treated NK cell experiment, unless otherwise indicated, NK cells were incubated with 100 nM StcE at 37° C. for 1 hour. Cells were thoroughly washed to remove StcE and coculture with target cells. After 4 hours, propidium iodide (PI; 20 μg/mL, Sigma) was added to each well for 10 minutes and washed with 0.5% BSA PBS. […] NK cell cytotoxicity was evaluated by flow cytometry as previously described^16,81. At least 1×10^4 target cells were analyzed after electronic gating on CellTracker Green. Percent cytotoxicity was calculated as 100×(experimental % dead−spontaneous % dead)/(100−spontaneous % dead), where experimental % dead was the percentage of PI positive target cells in NK cocultures and spontaneous % dead was the percentage of PI positive control target cells cultured in the absence of effector cells.

B1: StcE-ΔX409: StcE with a deleted C-terminal X409 lectin domain; NK cells treated with it: StcE-ΔX409 NK (protein)
chain: ADNNSAIYFNTSQPINDLQGSLAAEVKFAQSQILPAHPKEGDSQPHLTSLRKSLLLVRPVKADDKTPVQVEARDDNNKILGTLTLYPPSSLPDTIYHLDGVPEGGIDFTPHNGTKKIINTVAEVNKLSDASGSSIHSHLTNNALVEIHTANGRWVRDIYLPQGPDLEGKMVRFVSSAGYSSTVFYGDRKVTLSVGNTLLFKYVNGQWFRSGELENNRITYAQHIWSAELPAHWIVPGLNLVIKQGNLSGRLNDIKIGAPGELLLHTIDIGMLTTPRDRFDFAKDKEAHREYFQTIPVSRMIVNNYAPLHLKEVMLPTGELLTDMDPGNGGWHSGTMRQRIGKELVSHGIDNANYGLNSTAGLGENSHPYVVAQLAAHNSRGNYANGIQVHGGSGGGGIVTLDSTLGNEFSHEVGHNYGLGHYVDGFKGSVHRSAENNNSTWGWDGDKKRFIPNFYPSQTNEKSCLNNQCQEPFDGHKFGFDAMAGGSPFSAANRFTMYTPNSSAIIQRFFENKAVFDSRSSTGFSKWNADTQEMEPYEHTIDRAEQITASVNELSESKMAELMAEYAVVKVHMWNGNWTRNIYIPTASADNRGSILTINHEAGYNSYLFINGDEKVVSQGYKKSFVSDGQFWKERDVVDTREARKPEQFGVPVTTLVGYYDPEGTLSSYIYPAMYGAYGFTYSDDSQNLSDNDCQLQVDTKEGQLRFRLANHRANNTVMNKFHINVPTESQPTQATLVCNNKILDTKSLTPAPEGLTYTVN
Take B1: in the data set with NK-92 cells, the “trimming of mucin-domain containing proteins on NK-92 cells” value is “trimmed similarly”. In addition, the “cytotoxicity of enzyme-equipped or enzyme-treated NK cells compared to unmodified NK-92 cells” value in the data set on 1E7 cells is “not significantly enhanced”.
